Laboratory results reported in US11325966.

Key:
Assay in all cases: cell-based or functional assay
[1] = target: HIV-1 Env of pseudovirus BJOX028000.10.3 (HIV-1)
[2] = target: HIV-1 Env of pseudovirus SC422661.8 (HIV-1)
[3] = target: HIV-1 Env of pseudovirus 6480.v4.c25 (HIV-1)
[4] = target: HIV-1 Env of pseudovirus RHPA4259.7 (HIV-1)
[5] = target: HIV-1 Env of pseudovirus T278-50 (HIV-1)
[6] = target: HIV-1 Env of pseudovirus WEAU_d15_410_787 (HIV-1)
[7] = target: HIV-1 Env of pseudovirus 62357_14_D3_4589 (HIV-1)
[8] = target: HIV-1 Env of pseudovirus CAP45.2.00.G3 (HIV-1)
[9] = target: HIV-1 Env of pseudovirus ZM109F.PB4 (HIV-1)
[10] = target: HIV-1 Env of pseudovirus Q769.d22 (HIV-1)
[11] = target: HIV-1 Env of pseudovirus HIV-001428-2.42 (HIV-1)
[12] = target: HIV-1 Env of pseudovirus X1254_c3 (HIV-1)
[13] = target: HIV-1 Env of pseudovirus CNE19 (HIV-1)
[14] = target: HIV-1 Env of pseudovirus AC10.0.29 (HIV-1)
[15] = target: HIV-1 Env of pseudovirus 928-28 (HIV-1)
[16] = target: HIV-1 Env of pseudovirus ZM247v1(Rev-) (HIV-1)
[17] = target: HIV-1 Env of pseudovirus 3415.v1.c1 (HIV-1)
[18] = target: HIV-1 Env of pseudovirus HIV-0013095-2.11 (HIV-1)
[19] = target: HIV-1 Env of pseudovirus QH0692.42 (HIV-1)
[20] = target: HIV-1 Env of pseudovirus Ce0682_E4 (HIV-1)
[21] = target: HIV-1 Env of pseudovirus P1981_C5_3 (HIV-1)
[22] = target: HIV-1 Env of pseudovirus T251-18 (HIV-1)
[23] = target: HIV-1 Env of pseudovirus Du422.1 (HIV-1)
[24] = target: HIV-1 Env of pseudovirus ZM249M.PL1 (HIV-1)
[25] = target: HIV-1 Env of pseudovirus 263-8 (HIV-1)
[26] = target: HIV-1 Env of pseudovirus C3347.c11 (HIV-1)
[27] = target: HIV-1 Env of pseudovirus 3301.v1.c24 (HIV-1)
[28] = target: HIV-1 Env of pseudovirus ZM53M.PB12 (HIV-1)
[29] = target: HIV-1 Env of pseudovirus X2131_C1_B5 (HIV-1)
[30] = target: HIV-1 Env of pseudovirus TRJO4551.58 (HIV-1)
[31] = target: HIV-1 Env of pseudovirus 235-47 (HIV-1)
[32] = target: HIV-1 Env of pseudovirus C1080.c03 (HIV-1)
[33] = target: HIV-1 Env of pseudovirus THRO4156.18 (HIV-1)
[34] = target: HIV-1 Env of pseudovirus 3103.v3.c10 (HIV-1)
[35] = target: HIV-1 Env of pseudovirus 0815.v3.c3 (HIV-1)
[36] = target: HIV-1 Env of pseudovirus Du172.17 (HIV-1)
[37] = target: HIV-1 Env of pseudovirus Du156.12 (HIV-1)
[38] = target: HIV-1 Env of pseudovirus CNE30 (HIV-1)
[39] = target: HIV-1 Env of pseudovirus BF1266.431a (HIV-1)

B1: 10-1074 (antibody, V domains shown)
VH: QVQLQESGPGLVKPSETLSVTCSVSGDSMNNYYWTWIRQSPGKGLEWIGYISDRESATYNPSLNSRVVISRDTSKNQLSLKLNSVTPADTAVYYCATARRGQRIYGVVSFGEFFYYYSMDVWGKGTTVTVSS
VL: SYVRPLSVALGETARISCGRQALGSRAVQWYQHRPGQAPILLIYNNQDRPSGIPERFSGTPDINFGTRATLTISGVEAGDEADYYCHMWDSRSGFSWSFGGATRLTVL
Binder B1 has an IC50 in TZM-bl assay [1] greater than 10 µg/mL, an IC80 in TZM-bl assay [1] greater than 10 µg/mL and an IC50 in TZM-bl assay [2] of 0.058 µg/mL. The IC80 in TZM-bl assay [2] was 0.368 µg/mL, the IC50 in TZM-bl assay [3] was 0.006 µg/mL and the IC80 in TZM-bl assay [3] was 0.023 µg/mL. The IC50 in TZM-bl assay [4] was 0.023 µg/mL, the IC80 in TZM-bl assay [4] was 0.083 µg/mL and the IC50 in TZM-bl assay [5] was 1.71 µg/mL. The IC80 in TZM-bl assay [5] was greater than 10 µg/mL, the IC50 in TZM-bl assay [6] was 0.031 µg/mL and the IC80 in TZM-bl assay [6] was 0.112 µg/mL. The IC50 in TZM-bl assay [7] was greater than 10 µg/mL, the IC80 in TZM-bl assay [7] was greater than 10 µg/mL and the IC50 in TZM-bl assay [8] was greater than 10 µg/mL. It also gave an IC80 in TZM-bl assay [8] greater than 10 µg/mL, an IC50 in TZM-bl assay [9] greater than 10 µg/mL and an IC80 in TZM-bl assay [9] greater than 10 µg/mL. The IC50 in TZM-bl assay [10] was greater than 10 µg/mL, the IC80 in TZM-bl assay [10] was greater than 10 µg/mL and the IC50 in TZM-bl assay [11] was 0.035 µg/mL. It also gave an IC80 in TZM-bl assay [11] of 0.126 µg/mL, an IC50 in TZM-bl assay [12] of 0.063 µg/mL and an IC80 in TZM-bl assay [12] of 0.239 µg/mL. It also gave an IC50 in TZM-bl assay [13] of 0.075 µg/mL, an IC80 in TZM-bl assay [13] greater than 10 µg/mL and an IC50 in TZM-bl assay [14] of 0.015 µg/mL. For the same binder, the IC80 in TZM-bl assay [14] was 0.043 µg/mL, the IC50 in TZM-bl assay [15] was 0.616 µg/mL and the IC80 in TZM-bl assay [15] was 2.4 µg/mL. For the same binder, the IC50 in TZM-bl assay [16] was 0.042 µg/mL, the IC80 in TZM-bl assay [16] was 0.146 µg/mL and the IC50 in TZM-bl assay [17] was greater than 10 µg/mL. The IC80 in TZM-bl assay [17] was greater than 10 µg/mL, the IC50 in TZM-bl assay [18] was greater than 10 µg/mL and the IC80 in TZM-bl assay [18] was greater than 10 µg/mL. For the same binder, the IC50 in TZM-bl assay [19] was 0.106 µg/mL, the IC80 in TZM-bl assay [19] was 0.383 µg/mL and the IC50 in TZM-bl assay [20] was greater than 10 µg/mL. The IC80 in TZM-bl assay [20] was greater than 10 µg/mL, the IC50 in TZM-bl assay [21] was 0.004 µg/mL and the IC80 in TZM-bl assay [21] was 0.013 µg/mL. The IC50 in TZM-bl assay [22] was 0.399 µg/mL, the IC80 in TZM-bl assay [22] was 2.29 µg/mL and the IC50 in TZM-bl assay [23] was 0.047 µg/mL. For the same binder, the IC80 in TZM-bl assay [23] was 0.113 µg/mL, the IC50 in TZM-bl assay [24] was greater than 10 µg/mL and the IC80 in TZM-bl assay [24] was greater than 10 µg/mL. It also gave an IC50 in TZM-bl assay [25] of 0.416 µg/mL, an IC80 in TZM-bl assay [25] of 5.71 µg/mL and an IC50 in TZM-bl assay [26] greater than 10 µg/mL. For the same binder, the IC80 in TZM-bl assay [26] was greater than 10 µg/mL, the IC50 in TZM-bl assay [27] was 0.018 µg/mL and the IC80 in TZM-bl assay [27] was 0.049 µg/mL. The IC50 in TZM-bl assay [28] was greater than 10 µg/mL, the IC80 in TZM-bl assay [28] was greater than 10 µg/mL and the IC50 in TZM-bl assay [29] was 0.014 µg/mL. It also gave an IC80 in TZM-bl assay [29] of 0.056 µg/mL, an IC50 in TZM-bl assay [30] of 0.057 µg/mL and an IC80 in TZM-bl assay [30] of 0.218 µg/mL. It also gave an IC50 in TZM-bl assay [31] of 0.058 µg/mL, an IC80 in TZM-bl assay [31] of 0.224 µg/mL and an IC50 in TZM-bl assay [32] greater than 10 µg/mL. For the same binder, the IC80 in TZM-bl assay [32] was greater than 10 µg/mL, the IC50 in TZM-bl assay [33] was greater than 10 µg/mL and the IC80 in TZM-bl assay [33] was greater than 10 µg/mL. For the same binder, the IC50 in TZM-bl assay [34] was 0.024 µg/mL, the IC80 in TZM-bl assay [34] was 0.061 µg/mL and the IC50 in TZM-bl assay [35] was 0.043 µg/mL. The IC80 in TZM-bl assay [35] was 0.197 µg/mL, the IC50 in TZM-bl assay [36] was 0.049 µg/mL and the IC80 in TZM-bl assay [36] was 0.194 µg/mL. For the same binder, the IC50 in TZM-bl assay [37] was 0.01 µg/mL, the IC80 in TZM-bl assay [37] was 0.036 µg/mL and the IC50 in TZM-bl assay [38] was 0.261 µg/mL. It also gave an IC80 in TZM-bl assay [38] of 0.678 µg/mL, an IC50 in TZM-bl assay [39] greater than 10 µg/mL and an IC80 in TZM-bl assay [39] greater than 10 µg/mL.
